From US20130012432A1, “Peptides for Treatment of Obesity” (Novo Nordisk A/S, priority 2010, published 2013)

Target: human GLP-1 receptor (human) (UniProt P43220)
Assay: cell-based or functional assay

Sequence of human GLP-1 receptor (human) (P43220 24-463): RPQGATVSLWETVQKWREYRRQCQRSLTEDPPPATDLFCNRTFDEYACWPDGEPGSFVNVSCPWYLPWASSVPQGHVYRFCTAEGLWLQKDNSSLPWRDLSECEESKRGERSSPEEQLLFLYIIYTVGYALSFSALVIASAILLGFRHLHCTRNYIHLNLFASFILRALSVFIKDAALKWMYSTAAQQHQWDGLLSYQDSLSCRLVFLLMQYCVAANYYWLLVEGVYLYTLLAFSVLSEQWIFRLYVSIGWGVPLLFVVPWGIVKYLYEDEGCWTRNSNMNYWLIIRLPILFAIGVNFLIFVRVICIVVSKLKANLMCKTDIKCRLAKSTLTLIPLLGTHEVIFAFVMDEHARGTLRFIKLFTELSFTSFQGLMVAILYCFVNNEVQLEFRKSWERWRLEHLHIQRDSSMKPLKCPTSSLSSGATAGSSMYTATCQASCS

“N-epsilon37-[2-(2-{2-[2-(2-{2-[(S)-4-Carboxy-4-({trans-4-[(19-carboxynonadecanoylamino)methyl]cyclohexanecarbonyl}amino)butyrylamino]ethoxy}ethoxy)acetylamino]ethoxy}ethoxy)acetyl][DesaminoHis7,Glu22,Arg26,Arg34,Lys37]GLP-1-(7-37) (peptide)” was tested, and the EC50 of cAMP formation (AlphaScreen, Assay XI), relative to that of compound G1 (times the EC50 of compound G1) was 5.
